Assay in all cases: ELISA on coated antigen
Background: In an ELISA, binding on a coated surface is turned into a signal by an enzyme label.

The target in one assay is T1, bovine serum albumin (bovine, UniProt P02769 25-607).
T1 construct: Irrelevant antigen control; also called BSA

A further assay deals with T2, alpha1-ECD of human AChR (human, UniProt P02708 21-230, limits assumed).
T2 construct: extracellular domain; Irrelevant antigen control; also called α1-ECD; α1-AChR

The next assay has as its target T3, human serum albumin (human, UniProt P02768 25-609).
T3 construct: Irrelevant antigen control, produced in P. pastoris; also called HSA

The values below come from patent US20100047230A1 (HELLENIC PASTEUR INSTITUTE, published 2010).

T2 sequence (P02708 21-230 limits assumed): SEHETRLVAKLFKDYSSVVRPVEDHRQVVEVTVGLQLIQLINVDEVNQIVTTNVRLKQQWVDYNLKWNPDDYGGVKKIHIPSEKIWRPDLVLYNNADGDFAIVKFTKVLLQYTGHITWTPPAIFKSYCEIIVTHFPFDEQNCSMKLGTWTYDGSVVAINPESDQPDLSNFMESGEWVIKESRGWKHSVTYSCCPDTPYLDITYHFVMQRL
T1 sequence (P02769 25-607 limits assumed): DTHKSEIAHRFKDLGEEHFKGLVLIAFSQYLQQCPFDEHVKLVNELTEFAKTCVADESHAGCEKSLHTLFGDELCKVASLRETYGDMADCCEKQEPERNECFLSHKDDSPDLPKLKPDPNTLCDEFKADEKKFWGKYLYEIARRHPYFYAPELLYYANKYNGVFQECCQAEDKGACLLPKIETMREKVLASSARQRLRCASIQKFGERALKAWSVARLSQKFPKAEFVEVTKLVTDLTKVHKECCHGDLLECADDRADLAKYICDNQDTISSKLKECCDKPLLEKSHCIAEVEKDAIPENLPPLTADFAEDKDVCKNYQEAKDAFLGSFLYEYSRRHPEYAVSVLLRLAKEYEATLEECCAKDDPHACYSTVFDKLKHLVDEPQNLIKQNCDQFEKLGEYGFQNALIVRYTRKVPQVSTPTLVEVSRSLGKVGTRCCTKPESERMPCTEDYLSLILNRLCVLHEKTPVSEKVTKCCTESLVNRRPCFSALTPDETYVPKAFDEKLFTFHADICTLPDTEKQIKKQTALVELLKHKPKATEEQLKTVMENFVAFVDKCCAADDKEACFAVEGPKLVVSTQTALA

B1: Fab63 (Fab, V domains shown)
VH: EVQLLEWGPGLVKPSGTLSLTCAVSGGSIRDSNWWGWVRQPPGKGLEWIGEIYHSGTTNYNPSLKSRVTISVDKSKNQFSLNLSSVTAADTAVYYCAREDCSYGSCYFDYWGQGTLVTVSS
VL: ELTLTQSPSSLSASLGDRVTIRCRASQSISAALNWYQQKPGKAPKLLIHDVSTLQSGVPARFSGGGSETDFTLTISSLQPEDFATYYCQQSYRVPLTFGGGTRLEIK
notes: Fully human soluble Fab made in E. coli from pComb3H; Heavy chain is an Fd of the gamma1 isotype (VH-CH1), light chain is kappa (VL of the K subgroup, with Ckappa); also called human Fab 63; clone 63
As for B1, the binding result with bovine serum albumin, in the assay with alpha1-ECD of human AChR and with human serum albumin was “no binding (tested: antigen coated at 10 µg/ml)” in each case.
